Assay results from the supplement of paper PMC10567573.

B1: FAM98B (parent)
chain: QLDKNSEVYQEVQAMFDTLGIPKS
B2: MED27 (parent)
chain: YNENVYTEDGKLDIWSKSNYQVFQ

Variants of: B1
Experiment: protein stability index of a GFP-peptide fusion (GPS, HEK-293T) (PSI 1-6); higher = more stable
Settings: c terminus: a fixed tail appended
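Note: lentivirally expressed fusions sorted by FACS into six bins by GFP to DsRed ratio, PSI derived from sequencing read proportions per bin multiplied by bin number.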

Protein stability index: each site, then its substitutions
K4: S 3.52 | T 3.08 | A 3.04 | D 3.44 | M 2.85 | E 3.62 | W 3.04 | R 2.95 | N 3.67 | P 3 | I 2.56 | F 2.93 | C 3 | Q 3.03 | G 3.5 | Y 3.39 | H 3.43 | L 3.39 | V 2.2
Q10: Y 2.49 | L 2.18 | H 2.75 | I 1.39 | F 2 | E 3.57 | D 3.75 | C 2.63 | M 2.73 | A 3.01 | P 2.73 | N 3.07 | S 3.58 | W 2.3 | R 2.29 | T 3.1 | G 3.01 | K 2.53 | V 2.08
S6: A 3.6 | F 2.63 | R 2.88 | Y 2.71 | V 3.47 | C 2.77 | K 3.23 | Q 3.14 | M 3.23 | T 3.53 | L 2.66 | D 4.67 | G 3.56 | P 4 | I 2.69 | H 3.35 | E 4.21 | N 3.29 | W 2.32
L2: M 3.23 | H 4.13 | I 3.08 | W 4.03 | K 4.27 | E 5.34 | F 3.51 | A 4.38 | G 4.76 | S 4.63 | V 3.87 | P 4.66 | D 4.67 | Y 4.08 | R 3.58 | C 4.07 | N 4.36 | Q 4.23 | T 4.32
E7: V 2.58 | G 2.97 | M 3.01 | H 2.51 | S 2.77 | D 3.86 | F 2.39 | L 3.05 | Q 2.81 | T 2.83 | W 2.13 | P 2.58 | K 3.06 | I 1.99 | N 3.2 | R 2.87 | A 3.44 | Y 2.26 | C 2.62
N5: L 2.69 | I 2.88 | R 3.55 | P 4.37 | A 3.56 | K 3.88 | Q 4.22 | G 3.98 | E 3.86 | M 3.24 | D 4.66 | W 2.91 | F 3.41 | Y 2.83 | T 4.11 | C 3.37 | H 3.94 | V 3.99 | S 3.97
V8: K 3.07 | T 3.81 | P 3.32 | H 3.12 | E 3.79 | C 3.02 | L 3.47 | Q 3.31 | N 3.94 | R 3.36 | W 2.88 | S 3.35 | F 2.55 | G 3.12 | M 3.2 | I 2.73 | A 3.85 | D 3.62 | Y 2.96
D3: H 3.43 | A 3.46 | I 1.95 | K 3.45 | G 3.73 | F 2.73 | W 2.08 | P 3.11 | E 3.87 | C 2.21 | Y 2.49 | V 2.67 | L 2.06 | S 2.93 | N 3.47 | T 3.06 | Q 2.75 | R 3.21 | M 2.16
E11: Q 2.3 | S 2.62 | V 2.56 | G 2.78 | T 3.13 | C 2.48 | R 3.38 | A 2.86 | N 2.64 | I 1.67 | M 2.36 | F 2.07 | H 3.46 | D 2.86 | P 2.88 | W 1.27 | L 2.28 | K 1.69
Q1: D 4.18 | Y 2.62 | W 2.88 | N 3.39 | K 3.2 | L 2.55 | P 3.53 | S 2.96 | I 3.23 | V 2.7 | M 2.79 | A 2.91 | E 2.9 | H 3.64 | T 3.18 | R 3.39 | C 2.52 | G 3.31 | F 2.2
Y9: G 3.5 | I 3.67 | E 4.4 | Q 3.98 | H 3.55 | W 3.31 | P 3.57 | A 4.12 | L 3.2 | V 3.27 | C 3.58 | N 3.52 | K 3.72 | D 4.2 | M 3.66 | T 4.39 | F 2.72 | R 3.12 | S 3.78

Variants of: B2
Experiment: as above
Settings: c terminus: a fixed tail appended

Protein stability index, by site and new letter:
N19: E 3.36 | Q 2.26 | P 1.88 | L 1.58 | I 1.6 | M 1.94 | V 1.58 | G 1.96 | D 2.75 | W 1.73 | S 2.05 | F 1.67 | T 1.78 | C 1.59 | A 2.52 | R 2.4 | H 2.19 | Y 2.56 | K 1.96
Q21: K 2.44 | S 1.97 | P 1.98 | M 2.21 | R 2.23 | G 1.59 | C 2.01 | D 2.41 | W 2.45 | N 2.04 | E 2.09 | A 2.46 | L 2.07 | Y 2.02 | T 2.76 | F 1.79 | I 2.44 | V 1.82 | H 2.64
Y20: C 2.49 | F 2.25 | I 2.37 | H 2.58 | A 2.49 | D 3.38 | E 3.2 | W 1.64 | M 1.92 | S 2.72 | N 3.28 | K 2.76 | P 3.01 | R 2.59 | L 2.35 | G 2.62 | Q 2.94 | T 2.9 | V 2.52
S18: I 1.96 | P 2.13 | N 2.69 | Y 2.26 | R 1.52 | H 2.42 | W 1.68 | M 2.21 | L 2 | Q 2.56 | V 2.58 | K 1.97 | T 2.62
V22: C 2.56 | L 2.28 | K 2.4 | Q 2.73 | D 2.83 | E 2.52 | H 2.27 | T 2.45 | I 2.22 | P 2.66 | Y 2.42 | R 2.21 | M 2.37 | A 2.3 | S 2.5 | G 2.24 | F 2.79 | W 1.76 | N 2.41
Q24: T 2.23 | G 2.21 | P 1.81 | C 2.3 | R 1.86 | I 1.6 | N 2.46 | L 1.96 | D 2.75 | F 1.74 | Y 2.01 | K 2.58 | A 1.94 | S 1.37 | H 2.17 | M 1.62 | V 1.43 | W 2.21 | E 2.44
F23: L 2.41 | H 2.87 | W 2.16 | A 2.5 | S 1.4 | T 3 | I 2.43 | P 2.99 | Y 2.31 | G 2.88 | M 2.28 | E 3.02 | V 2.38 | D 3.26 | K 3.22 | N 2.93 | C 2.06 | Q 3.29
